According to the supplement of paper PMC10724198:
± gives the standard deviation of the averaged measurements.

These sequences were tested on Saccharomyces cerevisiae (assay: protein stability index of tFT-peptide fusion (C-terminal peptide) (PSI (0-1 scale)); higher = more stable (slower turnover)). Settings: genetic background: das1 deletion; temperature: 30 C.
Procedure: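 MPS profiling in S. cerevisiae of the yeast C-terminome library: the last 12 aa of each annotated ORF are fused to the C-terminus of a sfGFP-mCherry timer, after a GGGS linker. Cells are FACS-sorted into 8 mCherry/sfGFP bins and deep-sequenced. PSI runs from 0 (unstable) to 1 (stable); wild type and das1Δ backgrounds, two technical replicates each.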

For ALDAEKYLTSLE [TRR1 C-terminal 12 aa], which protein stability index is on record?
Its protein stability index is 0.707 ± 0.0079.

Which protein stability index does the source give for ALDAERYLSAQE [TRR2 C-terminal 12 aa] here?
Its protein stability index is 0.698 ± 0.025.

Which protein stability index does the source give for ALFKAAGGKIKK [YLF2 C-terminal 12 aa] here?
The protein stability index was 0.6703 ± 0.0023.

ALHLLTKFTHII [SBH2 C-terminal 12 aa] was tested. Which protein stability index did it give?
Its protein stability index is 0.733 ± 0.012.

Which protein stability index does the source give for ALKKAARQVKKE [IFA38 C-terminal 12 aa] here?
The protein stability index was 0.71 ± 0.0074.

For ALNRSAIIKDDK [DDP1 C-terminal 12 aa], which protein stability index is on record?
Its protein stability index is 0.703 ± 0.0071.

Which protein stability index does the source give for ALPLPDEDDADL [GSP1 C-terminal 12 aa] here?
The protein stability index was 0.673 ± 0.02.

With ALSKVGIYTIAN [PAU10 C-terminal 12 aa] as the sequence, how does the protein stability index read?
Its protein stability index is 0.702 ± 0.013.

Which protein stability index does the source give for ALWKEKKEKPRS [RPS23A C-terminal 12 aa] here?
The protein stability index was 0.709 ± 0.01.

Which protein stability index does the source give for ANDWKTYENMKK [SIP18 C-terminal 12 aa] here?
The protein stability index was 0.7042 ± 0.0029.

ANEMADELSRYL [IRC6 C-terminal 12 aa] was tested. Which protein stability index did it give?
The protein stability index was 0.724 ± 0.019.

ANFNDFYDAFYN [RSC30 C-terminal 12 aa] was tested. Which protein stability index did it give?
Its protein stability index is 0.732 ± 0.019.

Which protein stability index does the source give for ANGRHPQPSITL [CDC33 C-terminal 12 aa] here?
Its protein stability index is 0.71 ± 0.016.

With APEFLDWLDEEN [HEM2 C-terminal 12 aa] as the sequence, how does the protein stability index read?
The protein stability index was 0.738 ± 0.011.

“APNSNSSSGSVS [YFL013W-A C-terminal 12 aa]” was tested. Which protein stability index did it give?
The protein stability index was 0.673 ± 0.026.

Which protein stability index does the source give for AQGKLIMKVEGF [AST2 C-terminal 12 aa] here?
The protein stability index was 0.698 ± 0.03.

How did the protein stability index turn out when AQLLLTLNEETS [CAF40 C-terminal 12 aa] was run?
Its protein stability index is 0.6844 ± 0.0028.

AQPSQSEKEKTK [LNP1 C-terminal 12 aa] was tested. Which protein stability index did it give?
Its protein stability index is 0.679 ± 0.015.

Which protein stability index does the source give for ARGCCEVTSKRF [YGL188C C-terminal 12 aa] here?
The protein stability index was 0.683 ± 0.011.

How did the protein stability index turn out when ARGRRRSKGFKV [RPL18A C-terminal 12 aa] was run?
Its protein stability index is 0.722 ± 0.03.

For ARLDKSLTFEDQ [RIM20 C-terminal 12 aa], which protein stability index is on record?
Its protein stability index is 0.6983 ± 0.0055.

For ASDEPSRKKNRR [SSN3 C-terminal 12 aa], which protein stability index is on record?
The protein stability index was 0.743 ± 0.044.

ASSIYIIFDYEN [BUB3 C-terminal 12 aa] was tested. Which protein stability index did it give?
Its protein stability index is 0.6561 ± 0.0041.

How did the protein stability index turn out when ATFSHPELTNIH [SDH6 C-terminal 12 aa] was run?
The protein stability index was 0.716 ± 0.01.

For ATMALRKLVSRE [MSA2 C-terminal 12 aa], which protein stability index is on record?
The protein stability index was 0.693 ± 0.025.

For ATRVSSRLRNKK [EAF7 C-terminal 12 aa], which protein stability index is on record?
The protein stability index was 0.7311 ± 0.0026.

How did the protein stability index turn out when ATYLNKSDNQVQ [YLR446W C-terminal 12 aa] was run?
The protein stability index was 0.675 ± 0.052.

With AVERLKLLKDYL [BNA3 C-terminal 12 aa] as the sequence, how does the protein stability index read?
Its protein stability index is 0.685 ± 0.013.

Which protein stability index does the source give for AYFALREKKFLL [YIL012W C-terminal 12 aa] here?
Its protein stability index is 0.694 ± 0.019.

Which protein stability index does the source give for AYIDTSIPNLLL [REG2 C-terminal 12 aa] here?
The protein stability index was 0.707 ± 0.022.

With AYRTYDISLTEN [DRN1 C-terminal 12 aa] as the sequence, how does the protein stability index read?
The protein stability index was 0.694 ± 0.035.

Which protein stability index does the source give for CDEVVEHVKASA [PCM1 C-terminal 12 aa] here?
Its protein stability index is 0.708 ± 0.0093.

For “CGGKRNLQRNNF [YLR149C-A C-terminal 12 aa]”, which protein stability index is on record?
Its protein stability index is 0.703 ± 0.017.

How did the protein stability index turn out when CLGDSIVNLLLI [YGR259C C-terminal 12 aa] was run?
Its protein stability index is 0.677 ± 0.011.

CLREFMNGQRYI [DIA4 C-terminal 12 aa] was tested. Which protein stability index did it give?
Its protein stability index is 0.7021 ± 0.0027.

Which protein stability index does the source give for CLSIIGFLKTKV [YOR015W C-terminal 12 aa] here?
The protein stability index was 0.7002 ± 0.0043.

For CMKAVILYSEQM [ATE1 C-terminal 12 aa], which protein stability index is on record?
The protein stability index was 0.675 ± 0.012.

With CNVCLFPDMYAR [CTF19 C-terminal 12 aa] as the sequence, how does the protein stability index read?
The protein stability index was 0.71 ± 0.01.

CNYYYHPRITFA [RMT2 C-terminal 12 aa] was tested. Which protein stability index did it give?
The protein stability index was 0.6909 ± 0.0037.

For CPHHNPDNQQFF [BIK1 C-terminal 12 aa], which protein stability index is on record?
Its protein stability index is 0.702 ± 0.025.

With CTKHRFGYQNWI [ARP6 C-terminal 12 aa] as the sequence, how does the protein stability index read?
Its protein stability index is 0.692 ± 0.0049.

With CVKVQQFSVIVL [YDR193W C-terminal 12 aa] as the sequence, how does the protein stability index read?
Its protein stability index is 0.544 ± 0.013.

For DDFDMMEATQLS [MUD2 C-terminal 12 aa], which protein stability index is on record?
The protein stability index was 0.70816 ± 0.00051.

DDNEKALTWEEL [ATG19 C-terminal 12 aa] was tested. Which protein stability index did it give?
The protein stability index was 0.706 ± 0.013.

DEADSSMTEASV [SNF2 C-terminal 12 aa] was tested. Which protein stability index did it give?
Its protein stability index is 0.704 ± 0.033.

Which protein stability index does the source give for DEDVDFLKVQVF [HAP4 C-terminal 12 aa] here?
The protein stability index was 0.709 ± 0.041.

With DEFQRLTNGIPY [STT4 C-terminal 12 aa] as the sequence, how does the protein stability index read?
The protein stability index was 0.695 ± 0.024.

With DEKLHSHNASPN [YNL198C C-terminal 12 aa] as the sequence, how does the protein stability index read?
The protein stability index was 0.6788 ± 0.0032.

How did the protein stability index turn out when “DFIRGVAVFMHI [YMR272W-A C-terminal 12 aa]” was run?
Its protein stability index is 0.691 ± 0.02.

DHIPLLTEFKIL [NGL1 C-terminal 12 aa] was tested. Which protein stability index did it give?
Its protein stability index is 0.721 ± 0.036.

Which protein stability index does the source give for DIISFTSTLHGG [URM1 C-terminal 12 aa] here?
The protein stability index was 0.727 ± 0.015.

With DISDKIRRMQSR [MGP12 C-terminal 12 aa] as the sequence, how does the protein stability index read?
The protein stability index was 0.692 ± 0.0073.

DKITAELILNKI [EMC2 C-terminal 12 aa] was tested. Which protein stability index did it give?
Its protein stability index is 0.6872 ± 0.0017.

Which protein stability index does the source give for DKKKKKSKCVIL [RHO5 C-terminal 12 aa] here?
The protein stability index was 0.753 ± 0.0091.

For DKKLARAGNNAI [CUE3 C-terminal 12 aa], which protein stability index is on record?
Its protein stability index is 0.695 ± 0.0092.

How did the protein stability index turn out when DKPLYKRMFSTK [HXT6 C-terminal 12 aa] was run?
The protein stability index was 0.694 ± 0.022.

For “DKYPFLLYEVVR [YHR022C-A C-terminal 12 aa]”, which protein stability index is on record?
The protein stability index was 0.5289 ± 0.0027.

With DLLNSVVVQRWA [SHP1 C-terminal 12 aa] as the sequence, how does the protein stability index read?
The protein stability index was 0.697 ± 0.012.

Which protein stability index does the source give for DLMISCLMNQET [MTR3 C-terminal 12 aa] here?
The protein stability index was 0.712 ± 0.028.

For DLTKKPKKITFD [DBP3 C-terminal 12 aa], which protein stability index is on record?
Its protein stability index is 0.6923 ± 0.0048.

With DNDIYNTISEVR [RAD9 C-terminal 12 aa] as the sequence, how does the protein stability index read?
Its protein stability index is 0.697 ± 0.022.

For DPTTNGSIIKNE [IXR1 C-terminal 12 aa], which protein stability index is on record?
The protein stability index was 0.6787 ± 0.0023.

How did the protein stability index turn out when DRLKRRNNDYGF [MSO1 C-terminal 12 aa] was run?
The protein stability index was 0.695 ± 0.014.

DSLENKIDSMTK [INH1 C-terminal 12 aa] was tested. Which protein stability index did it give?
Its protein stability index is 0.715 ± 0.018.

DSTMKIWSPGYQ [STE4 C-terminal 12 aa] was tested. Which protein stability index did it give?
The protein stability index was 0.7158 ± 0.00073.

With DSYKLMHSHIHP [IZH1 C-terminal 12 aa] as the sequence, how does the protein stability index read?
The protein stability index was 0.691 ± 0.01.

Which protein stability index does the source give for DTSSTVEKKQKT [CCL1 C-terminal 12 aa] here?
Its protein stability index is 0.686 ± 0.032.

DTVVRLIDNIVI [PAN6 C-terminal 12 aa] was tested. Which protein stability index did it give?
Its protein stability index is 0.6896 ± 0.0041.

How did the protein stability index turn out when DVERVIRNAGRS [HSL1 C-terminal 12 aa] was run?
Its protein stability index is 0.693 ± 0.0082.

How did the protein stability index turn out when EALGKGGRGKRY [LSO1 C-terminal 12 aa] was run?
Its protein stability index is 0.671 ± 0.013.

For EALTKASNVNKL [CIT3 C-terminal 12 aa], which protein stability index is on record?
Its protein stability index is 0.6972 ± 0.0031.

How did the protein stability index turn out when EAQSARNEKPLK [COS8 C-terminal 12 aa] was run?
The protein stability index was 0.685 ± 0.021.

Which protein stability index does the source give for EDRQAFFDSLKE [YGK1 C-terminal 12 aa] here?
The protein stability index was 0.724 ± 0.036.

With EDSKEYFEAANK [TSA1 C-terminal 12 aa] as the sequence, how does the protein stability index read?
The protein stability index was 0.71 ± 0.021.

How did the protein stability index turn out when EDTVNDKANFEG [STL1 C-terminal 12 aa] was run?
The protein stability index was 0.673 ± 0.015.

How did the protein stability index turn out when EEFLTLLGRRSI [FOL2 C-terminal 12 aa] was run?
The protein stability index was 0.708 ± 0.01.

Which protein stability index does the source give for EEWYTSNHDSLA [PRP18 C-terminal 12 aa] here?
Its protein stability index is 0.723 ± 0.013.

For EFEKAQEINKKA [YRB1 C-terminal 12 aa], which protein stability index is on record?
Its protein stability index is 0.712 ± 0.017.

How did the protein stability index turn out when EGDIEPLKRILK [UBP2 C-terminal 12 aa] was run?
Its protein stability index is 0.706 ± 0.012.

With EGRKVKKVSFAQ [LOC1 C-terminal 12 aa] as the sequence, how does the protein stability index read?
Its protein stability index is 0.7297 ± 0.0035.

EHYSDGDVCIII [DAL3 C-terminal 12 aa] was tested. Which protein stability index did it give?
The protein stability index was 0.68 ± 0.032.

Which protein stability index does the source give for EIASCSSSIYSE [DSE3 C-terminal 12 aa] here?
The protein stability index was 0.696 ± 0.022.

With EIIRVGPQESII [MRP49 C-terminal 12 aa] as the sequence, how does the protein stability index read?
The protein stability index was 0.723 ± 0.019.
